Assays:
[1] = target: T1, soluble recombinant integrin αvβ3, P06756;P05106; assay: ELISA-type binding assay (OD450); conditions: chain shown with the change; CD62P 50 µg/ml; 1 mM Mn2+; parent: est. 0.55; read off a plot
T1 chain 1: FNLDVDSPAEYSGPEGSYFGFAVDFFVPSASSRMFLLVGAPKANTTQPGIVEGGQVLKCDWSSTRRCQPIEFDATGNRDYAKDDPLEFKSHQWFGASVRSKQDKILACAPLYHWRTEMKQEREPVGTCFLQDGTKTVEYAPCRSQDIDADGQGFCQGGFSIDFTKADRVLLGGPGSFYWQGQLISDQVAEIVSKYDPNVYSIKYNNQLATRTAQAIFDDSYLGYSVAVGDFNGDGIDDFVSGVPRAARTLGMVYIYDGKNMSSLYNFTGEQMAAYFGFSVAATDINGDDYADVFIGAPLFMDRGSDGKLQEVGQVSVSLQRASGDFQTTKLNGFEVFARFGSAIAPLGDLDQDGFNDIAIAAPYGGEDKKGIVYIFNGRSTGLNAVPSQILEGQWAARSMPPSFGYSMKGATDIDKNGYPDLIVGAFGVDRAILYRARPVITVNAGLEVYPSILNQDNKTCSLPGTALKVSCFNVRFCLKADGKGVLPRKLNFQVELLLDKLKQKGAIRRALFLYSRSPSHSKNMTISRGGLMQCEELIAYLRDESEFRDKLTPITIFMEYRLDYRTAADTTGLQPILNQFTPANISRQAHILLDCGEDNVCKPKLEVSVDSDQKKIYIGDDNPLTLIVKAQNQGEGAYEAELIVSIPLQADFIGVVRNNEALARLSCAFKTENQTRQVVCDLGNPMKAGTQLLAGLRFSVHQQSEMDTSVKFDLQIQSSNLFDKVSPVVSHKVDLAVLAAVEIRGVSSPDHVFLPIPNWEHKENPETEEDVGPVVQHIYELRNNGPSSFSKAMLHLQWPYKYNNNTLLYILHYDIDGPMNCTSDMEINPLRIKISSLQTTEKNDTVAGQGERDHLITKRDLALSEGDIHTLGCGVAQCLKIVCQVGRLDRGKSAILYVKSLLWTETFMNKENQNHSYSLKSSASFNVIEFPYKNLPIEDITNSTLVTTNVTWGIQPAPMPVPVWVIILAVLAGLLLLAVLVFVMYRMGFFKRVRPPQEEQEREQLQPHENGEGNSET
T1 chain 2: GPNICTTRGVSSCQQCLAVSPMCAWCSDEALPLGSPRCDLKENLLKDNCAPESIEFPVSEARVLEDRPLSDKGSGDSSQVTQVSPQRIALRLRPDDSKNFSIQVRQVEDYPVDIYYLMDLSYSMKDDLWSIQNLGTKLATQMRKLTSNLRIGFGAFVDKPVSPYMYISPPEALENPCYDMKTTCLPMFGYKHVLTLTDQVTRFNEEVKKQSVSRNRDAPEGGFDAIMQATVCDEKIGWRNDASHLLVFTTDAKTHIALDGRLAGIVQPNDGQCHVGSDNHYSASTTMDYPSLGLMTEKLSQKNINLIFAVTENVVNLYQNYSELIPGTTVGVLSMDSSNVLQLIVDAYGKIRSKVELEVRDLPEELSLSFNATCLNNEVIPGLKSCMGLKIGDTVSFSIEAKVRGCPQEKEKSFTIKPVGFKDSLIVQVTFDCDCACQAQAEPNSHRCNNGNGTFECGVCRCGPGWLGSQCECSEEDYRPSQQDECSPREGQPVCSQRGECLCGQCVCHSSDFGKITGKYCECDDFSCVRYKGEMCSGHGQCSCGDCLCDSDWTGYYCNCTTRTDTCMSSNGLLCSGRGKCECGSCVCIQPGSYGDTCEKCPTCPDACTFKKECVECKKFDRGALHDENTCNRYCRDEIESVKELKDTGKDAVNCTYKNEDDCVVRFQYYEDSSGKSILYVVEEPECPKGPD

[2] = target: soluble recombinant integrin αIIbβ3, P08514;P05106; assay: ELISA-type binding assay (OD450); conditions: chain shown with the change; CD62P 50 µg/ml; 1 mM Mn2+; parent: est. 0.54; read off a plot

B1: CD62P (P-selectin) lectin domain (residues 1–117), wild type R54E; K55E (protein)
chain: WTYHYSTKAYSWNISRKYCQNRYTDLVAIQNKNEIDYLNKVLPYYSSYYWIGIEENNKTWTWVGTKKALTNEAENWADNEPNNKRNNEDCVEIYIKSPSAPGKWNDEHCLKKKHALC
B1 gave a response [1] of 1.2 OD450 and a response [2] of 1.3 OD450.

B2: CD62P (P-selectin) lectin domain (residues 1–117), wild type K66E; K67E (protein)
chain: WTYHYSTKAYSWNISRKYCQNRYTDLVAIQNKNEIDYLNKVLPYYSSYYWIGIRKNNKTWTWVGTEEALTNEAENWADNEPNNKRNNEDCVEIYIKSPSAPGKWNDEHCLKKKHALC
In the case of B2, the response [1] is reported as 0.35 OD450 and the response [2] is reported as 0.3 OD450.

B3: CD62P (P-selectin) lectin domain (residues 1–117), wild type K58E (protein)
chain: WTYHYSTKAYSWNISRKYCQNRYTDLVAIQNKNEIDYLNKVLPYYSSYYWIGIRKNNETWTWVGTKKALTNEAENWADNEPNNKRNNEDCVEIYIKSPSAPGKWNDEHCLKKKHALC
B3 was tested, and the response [1] was 0.31 OD450 and the response [2] was 0.27 OD450.

B4: CD62P (P-selectin) lectin domain (residues 1–117), wild type R16E; K17E (protein)
chain: WTYHYSTKAYSWNISEEYCQNRYTDLVAIQNKNEIDYLNKVLPYYSSYYWIGIRKNNKTWTWVGTKKALTNEAENWADNEPNNKRNNEDCVEIYIKSPSAPGKWNDEHCLKKKHALC
B4 showed a response [1] of 0.14 OD450 and a response [2] of 0.12 OD450.

B5: CD62P (P-selectin) lectin domain (residues 1–117), wild type K84E; R85E (protein)
chain: WTYHYSTKAYSWNISRKYCQNRYTDLVAIQNKNEIDYLNKVLPYYSSYYWIGIRKNNKTWTWVGTKKALTNEAENWADNEPNNEENNEDCVEIYIKSPSAPGKWNDEHCLKKKHALC
B5 showed a response [1] of 0.24 OD450 and a response [2] of 0.19 OD450.

B6: CD62P (P-selectin) lectin domain (residues 1–117), wild type E88D (protein)
chain: WTYHYSTKAYSWNISRKYCQNRYTDLVAIQNKNEIDYLNKVLPYYSSYYWIGIRKNNKTWTWVGTKKALTNEAENWADNEPNNKRNNDDCVEIYIKSPSAPGKWNDEHCLKKKHALC
For B6, the response [1] was 0.8 OD450 and the response [2] was 0.76 OD450.
